Measurements: paper PMC4215257, “Geminin Inhibits a Late Step in the Formation of Human Pre-replicative Complexes*” (The Journal of Biological Chemistry, 2014)

B1: FLAG-HsGeminin-His6 (wild type) (natural protein, human, UniProt O75496 1-209, looked up)
chain: MNPSMKQKQEEIKENIKNSSVPRRTLKMIQPSASGSLVGRENELSAGLSKRKHRNDHLTSTTSSPGVIVPESSENKNLGGVTQESFDLMIKENPSSQYWKEVAEKRRKALYEALKENEKLHKEIEQKDNEIARLKKENKELAEVAEHVQYMAELIERLNGEPLDNFESLDNQEFDSEEETVEDSLVEDSEIGTCAEGTVSSSTDAKPCI
notes: also called wild-type HsGeminin; wt; source: Sf9, baculovirus; purified (Ni-NTA, then anti-FLAG M2 agarose); also in Sf9 lysate; not shown: FLAG, N-terminal, kept; His6, C-terminal, kept
B2: Myc-HsCdc6 (natural protein, human, UniProt Q99741 1-560, looked up)
chain: MPQTRSQAQATISFPKRKLSRALNKAKNSSDAKLEPTNVQTVTCSPRVKALPLSPRKRLGDDNLCNTPHLPPCSPPKQGKKENGPPHSHTLKGRRLVFDNQLTIKSPSKRELAKVHQNKILSSVRKSQEITTNSEQRCPLKKESACVRLFKQEGTCYQQAKLVLNTAVPDRLPAREREMDVIRNFLREHICGKKAGSLYLSGAPGTGKTACLSRILQDLKKELKGFKTIMLNCMSLRTAQAVFPAIAQEICQEEVSRPAGKDMMRKLEKHMTAEKGPMIVLVLDEMDQLDSKGQDVLYTLFEWPWLSNSHLVLIGIANTLDLTDRILPRLQAREKCKPQLLNFPPYTRNQIVTILQDRLNQVSRDQVLDNAAVQFCARKVSAVSGDVRKALDVCRRAIEIVESDVKSQTILKPLSECKSPSEPLIPKRVGLIHISQVISEVDGNRMTLSQEGAQDSFPLQQKILVCSLMLLIRQLKIKEVTLGKLYEAYSKVCRKQQVAAVDQSECLSLSGLLEARGILGLKRNKETRLTKVFFKIEEKEIEHALKDKALIGNILATGLP
notes: human Cdc6; also called human Cdc6; source: Sf9, baculovirus; purified (anti-c-Myc 9E10 agarose, 9E10 peptide elution); also in Sf9 lysate; not shown: Myc, N-terminal, kept
B3: FLAG-HsCdt1 (natural protein, human, UniProt Q9H211 1-546, looked up)
chain: MEQRRVTDFFARRRPGPPRIAPPKLACRTPSPARPALRAPASATSGSRKRARPPAAPGRDQARPPARRRLRLSVDEVSSPSTPEAPDIPACPSPGQKIKKSTPAAGQPPHLTSAQDQDTISELASCLQRARELGARVRALKASAQDAGESCTPEAEGRPEEPCGEKAPAYQRFHALAQPGLPGLVLPYKYQVLAEMFRSMDTIVGMLHNRSETPTFAKVQRGVQDMMRRRFEECNVGQIKTVYPASYRFRQERSVPTFKDGTRRSDYQLTIEPLLEQEADGAAPQLTASRLLQRRQIFSQKLVEHVKEHHKAFLASLSPAMVVPEDQLTRWHPRFNVDEVPDIEPAALPQPPATEKLTTAQEVLARARNLISPRMEKALSQLALRSAAPSSPGSPRPALPATPPATPPAASPSALKGVSQDLLERIRAKEAQKQLAQMTRCPEQEQRLQRLERLPELARVLRSVFVSERKPALSMEVACARMVGSCCTIMSPGEMEKHLLLLSELLPDWLSLHRIRTDTYVKLDKAADLAHITARLAHQTRAEEGL
notes: human Cdt1; also called human Cdt1; source: Sf9, baculovirus; purified (anti-FLAG M2 agarose, FLAG peptide elution); also in Sf9 lysate; not shown: FLAG, N-terminal, kept

Tests used:
FLAG-HsCdt1 = molecular target: B3; experiment: co-IP; 60 ng purified FLAG-HsCdt1 with 40 ng wild-type or mutant HsGeminin; rabbit anti-human Geminin polyclonal antibodies on protein A/G plus agarose; PBS plus 1 mg/ml BSA, 4 °C, 3 h; washed with PBS plus 0.5 M NaCl; Western blot; conditions: both partners purified
HsMCM467 complex = molecular target: T1, HsMCM467 complex (human, UniProt P33991 1-863; Q14566 1-821; P33993 1-719); experiment: recruitment to DNA-coupled magnetic beads; two steps: HsORC or control buffer on pUC19-lamin-B2 DNA beads, then HsMCM467 or HsMCM2–7 with HsCdc6 and/or HsCdt1; 90 mM potassium acetate, 4 mM ATP, 37 °C, 30 min; washed with 100 mM potassium glutamate; Western blot; conditions: both partners purified
T1 construct: human Mcm4; human Mcm6, untagged; human Mcm7, untagged; source: Sf9 co-infected with baculoviruses for His6-2xFLAG-HsMcm4, HsMcm6 and HsMcm7; purified (Ni-NTA, then FLAG M2 agarose); copies: + +
T1 sequence (P33991 whole entry, chain 1 of 3): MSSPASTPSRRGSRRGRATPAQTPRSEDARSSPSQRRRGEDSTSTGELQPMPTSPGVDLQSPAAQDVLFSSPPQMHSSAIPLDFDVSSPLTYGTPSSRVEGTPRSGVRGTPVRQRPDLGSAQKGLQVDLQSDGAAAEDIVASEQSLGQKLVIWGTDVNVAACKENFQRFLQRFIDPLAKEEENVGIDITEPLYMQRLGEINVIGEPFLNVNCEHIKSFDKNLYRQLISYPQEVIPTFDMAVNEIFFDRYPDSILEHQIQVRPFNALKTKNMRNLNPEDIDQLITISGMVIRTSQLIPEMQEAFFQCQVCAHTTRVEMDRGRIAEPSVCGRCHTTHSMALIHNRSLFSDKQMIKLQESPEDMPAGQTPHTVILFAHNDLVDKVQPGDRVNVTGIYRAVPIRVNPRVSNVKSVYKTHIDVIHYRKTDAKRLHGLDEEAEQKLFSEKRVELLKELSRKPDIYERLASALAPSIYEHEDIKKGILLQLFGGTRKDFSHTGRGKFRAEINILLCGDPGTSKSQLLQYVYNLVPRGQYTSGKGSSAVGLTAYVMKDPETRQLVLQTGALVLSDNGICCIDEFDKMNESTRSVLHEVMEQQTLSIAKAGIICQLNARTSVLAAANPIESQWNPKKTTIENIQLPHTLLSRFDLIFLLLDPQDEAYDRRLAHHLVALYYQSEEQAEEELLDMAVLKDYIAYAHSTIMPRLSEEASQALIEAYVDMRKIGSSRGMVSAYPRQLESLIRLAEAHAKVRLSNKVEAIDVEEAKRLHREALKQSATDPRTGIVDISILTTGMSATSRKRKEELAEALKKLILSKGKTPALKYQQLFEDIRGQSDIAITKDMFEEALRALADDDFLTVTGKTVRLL
T1 sequence (Q14566 whole entry, chain 2 of 3): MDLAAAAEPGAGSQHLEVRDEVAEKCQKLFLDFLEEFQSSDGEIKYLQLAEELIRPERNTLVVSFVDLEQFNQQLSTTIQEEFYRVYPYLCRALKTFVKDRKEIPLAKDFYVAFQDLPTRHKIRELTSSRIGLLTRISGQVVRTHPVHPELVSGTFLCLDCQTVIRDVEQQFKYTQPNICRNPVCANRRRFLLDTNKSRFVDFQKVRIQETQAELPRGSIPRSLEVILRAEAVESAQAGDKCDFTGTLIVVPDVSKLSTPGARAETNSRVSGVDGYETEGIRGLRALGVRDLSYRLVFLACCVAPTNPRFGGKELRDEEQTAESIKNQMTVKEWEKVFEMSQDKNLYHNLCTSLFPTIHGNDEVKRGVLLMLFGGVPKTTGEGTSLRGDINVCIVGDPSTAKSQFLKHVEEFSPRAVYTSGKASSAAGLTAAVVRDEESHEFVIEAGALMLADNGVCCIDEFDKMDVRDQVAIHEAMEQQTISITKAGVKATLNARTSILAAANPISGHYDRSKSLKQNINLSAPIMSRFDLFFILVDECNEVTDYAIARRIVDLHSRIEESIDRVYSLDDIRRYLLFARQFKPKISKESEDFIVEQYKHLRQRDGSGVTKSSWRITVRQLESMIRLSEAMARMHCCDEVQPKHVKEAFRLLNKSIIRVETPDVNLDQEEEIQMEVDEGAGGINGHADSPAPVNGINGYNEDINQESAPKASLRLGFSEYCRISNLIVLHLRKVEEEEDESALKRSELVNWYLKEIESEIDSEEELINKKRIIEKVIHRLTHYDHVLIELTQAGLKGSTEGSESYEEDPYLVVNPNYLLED
T1 sequence (P33993 whole entry, chain 3 of 3): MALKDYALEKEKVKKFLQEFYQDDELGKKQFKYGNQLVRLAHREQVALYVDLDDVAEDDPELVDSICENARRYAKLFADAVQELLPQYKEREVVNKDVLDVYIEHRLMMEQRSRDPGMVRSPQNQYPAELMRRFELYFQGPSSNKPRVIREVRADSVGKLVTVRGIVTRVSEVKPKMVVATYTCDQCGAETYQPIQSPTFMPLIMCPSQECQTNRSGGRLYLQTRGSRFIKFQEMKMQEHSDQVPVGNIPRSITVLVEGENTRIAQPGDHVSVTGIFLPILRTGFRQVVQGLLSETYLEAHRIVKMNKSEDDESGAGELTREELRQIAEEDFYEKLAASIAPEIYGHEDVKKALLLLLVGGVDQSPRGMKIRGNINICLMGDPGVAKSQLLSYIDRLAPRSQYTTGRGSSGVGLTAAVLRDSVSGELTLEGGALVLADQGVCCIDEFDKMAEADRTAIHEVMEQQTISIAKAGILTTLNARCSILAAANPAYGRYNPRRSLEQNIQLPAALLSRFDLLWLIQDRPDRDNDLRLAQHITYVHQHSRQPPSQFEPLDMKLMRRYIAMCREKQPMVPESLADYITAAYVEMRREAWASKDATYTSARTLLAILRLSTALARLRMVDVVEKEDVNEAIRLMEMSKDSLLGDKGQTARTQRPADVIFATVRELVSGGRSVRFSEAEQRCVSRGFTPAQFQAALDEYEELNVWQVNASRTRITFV

HsMCM2–7 complex = molecular target: T2, HsMCM2–7 complex (human | human (endogenous in 293T), UniProt P49736 1-904; P25205 1-808; P33991 1-863; P33992 1-734; Q14566 1-821; P33993 …); experiment: as above; conditions: both partners purified
T2 construct: human Mcm2, full length; Mcm3, endogenous in 293T; Mcm4, endogenous in 293T; Mcm5, endogenous in 293T; Mcm6, endogenous in 293T; Mcm7, endogenous in 293T; also called complete heterohexameric human MCM complex; copies: + + + + +

[1] = molecular target: T3, FLAG-HsGeminin-His6 (wild type) (Homo sapiens (Human), UniProt O75496); experiment: co-immunoprecipitation of purified proteins (anti-Geminin, 0.5 M NaCl wash, Western blot)
T3 chain: B1 chain

Row | Binder | binding result (FLAG-HsCdt1) | binding result (HsMCM467 complex) | binding result (HsMCM2–7 complex) | binding result [1]
1 | B1 | binds | – | – | –
2 | B2 | – | binds | binds | –
3 | B3 | – | binds | – | binds
